In patent publication US6518013:

Molecular target: viral gp41 (HIV-1 transmembrane envelope protein) of HIV-1IIIB (HIV-1IIIB) (UniProt P04578)
Experiment: cell-based or functional assay

Compared with “DP107 (synthetic peptide, residues 558 to 595 of HIV-1LAI gp41)”, “M41-PΔ178 (M41-P from which the DP-178 region has been deleted; gp41 residues 540-642 with Ile578Pro) (from UniProt P03377 540-642)” is higher in Cell fusion (IC90): 1000 nM for the first, greater than 50000 nM for the second.

Going from “M41-P (M41 with an Ile to Pro mutation at position 578) (from UniProt P0AEX9 27-392; P03377 540-686)” to “DP178 (synthetic peptide, amino acids 638 to 673 of HIV-1LAI gp41)”, the Cell fusion (IC90) falls from 83 nM to 1 nM (83-fold).

Substance “M41 (maltose binding protein fusion of the gp41 ectodomain, residues 540-686) (from UniProt P0AEX9 27-392; P03377 540-686)” has a Cell fusion (IC90) greater than 50000 nM.

Going from “DP107 (synthetic peptide, residues 558 to 595 of HIV-1LAI gp41)” to “M41-PΔ178 (M41-P from which the DP-178 region has been deleted; gp41 residues 540-642 with Ile578Pro) (from UniProt P03377 540-642)”, the HIV infectivity (IC90) rises from 1000 nM to greater than 8000 nM.

“M41-P (M41 with an Ile to Pro mutation at position 578) (from UniProt P0AEX9 27-392; P03377 540-686)” and “DP178 (synthetic peptide, amino acids 638 to 673 of HIV-1LAI gp41)” are within 1.5-fold of each other in HIV infectivity (IC90): 66 nM for the first, 80 nM for the second.

“M41 (maltose binding protein fusion of the gp41 ectodomain, residues 540-686) (from UniProt P0AEX9 27-392; P03377 540-686)” was tested, and the HIV infectivity (IC90) was greater than 16000 nM.
